Measured values: publication PMC11195156 (bioRxiv, 2025)

T1: Escherichia coli sulfite reductase hemoprotein (Escherichia coli K-12, UniProt P17846 1-570)
T1 sequence: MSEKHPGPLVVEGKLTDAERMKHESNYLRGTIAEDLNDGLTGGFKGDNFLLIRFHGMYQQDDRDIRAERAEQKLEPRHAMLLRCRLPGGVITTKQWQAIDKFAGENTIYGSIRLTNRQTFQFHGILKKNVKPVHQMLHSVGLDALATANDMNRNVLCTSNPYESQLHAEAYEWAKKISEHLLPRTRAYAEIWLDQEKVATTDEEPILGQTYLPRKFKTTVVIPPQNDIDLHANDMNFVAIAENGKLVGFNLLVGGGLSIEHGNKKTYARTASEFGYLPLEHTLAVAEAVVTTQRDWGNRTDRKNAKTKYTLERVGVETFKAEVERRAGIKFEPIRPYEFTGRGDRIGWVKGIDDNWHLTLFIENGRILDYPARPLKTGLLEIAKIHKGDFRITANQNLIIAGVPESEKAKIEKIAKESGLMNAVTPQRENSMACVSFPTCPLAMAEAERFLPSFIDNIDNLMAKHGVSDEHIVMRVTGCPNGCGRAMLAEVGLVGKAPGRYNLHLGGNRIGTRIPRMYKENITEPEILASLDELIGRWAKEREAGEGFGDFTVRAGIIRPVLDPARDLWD

B1: SiRFP-60X: sulfite reductase flavoprotein amino acids 52-599 (C162T/C552S/E121C/N556C) (domain or fragment, Escherichia coli K-12, UniProt P38038 52-599, looked up)
chain: AATPAPAAEMPGITIISASQTGNARRVAEALRDDLLAAKLNVKLVNAGDYKFKQIASEKLLIVVTSTQGCGEPPEEAVALHKFLFSKKAPKLENTAFAVFSLGDSSYEFFTQSGKDFDSKLAELGGERLLDRVDADVEYQAAASEWRARVVDALKSRAPVAAPSQSVATGAVNEIHTSPYSKDAPLVASLSVNQKITGRNSEKDVRHIEIDLGDSGMRYQPGDALGVWYQNDPALVKELVELLWLKGDEPVTVEGKTLPLNEALQWHFELTVNTANIVENYATLTRSETLLPLVGDKAKLQHYAATTPIVDMVRFSPAQLDAEALINLLRPLTPRLYSIASSQAEVENEVHVTVGVVRYDVEGRARAGGASSFLADRVEEEGEVRVFIEHNDNFRLPANPETPVIMIGPGTGIAPFRAFMQQRAADEAPGKNWLFFGNPHFTEDFLYQVEWQRYVKDGVLTRIDLAWSRDQKEKVYVQDKLREQGAELWRWINDGAHIYVSGDACRMAKDVEQALLEVIAEFGGMDTEAADEFLSELRVERRYQRDVY
B2: SiRFP-60Δ: sulfite reductase flavoprotein amino acids 52-599/Δ212-217 (Δ-AAPSQS) (domain or fragment, Escherichia coli K-12, UniProt P38038 52-599, looked up)
chain: AATPAPAAEMPGITIISASQTGNARRVAEALRDDLLAAKLNVKLVNAGDYKFKQIASEKLLIVVTSTQGEGEPPEEAVALHKFLFSKKAPKLENTAFAVFSLGDSSYEFFCQSGKDFDSKLAELGGERLLDRVDADVEYQAAASEWRARVVDALKSRAPVVATGAVNEIHTSPYSKDAPLVASLSVNQKITGRNSEKDVRHIEIDLGDSGMRYQPGDALGVWYQNDPALVKELVELLWLKGDEPVTVEGKTLPLNEALQWHFELTVNTANIVENYATLTRSETLLPLVGDKAKLQHYAATTPIVDMVRFSPAQLDAEALINLLRPLTPRLYSIASSQAEVENEVHVTVGVVRYDVEGRARAGGASSFLADRVEEEGEVRVFIEHNDNFRLPANPETPVIMIGPGTGIAPFRAFMQQRAADEAPGKNWLFFGNPHFTEDFLYQVEWQRYVKDGVLTRIDLAWSRDQKEKVYVQDKLREQGAELWRWINDGAHIYVCGDANRMAKDVEQALLEVIAEFGGMDTEAADEFLSELRVERRYQRDVY
B3: SiRFP-43: sulfite reductase flavoprotein amino acids 237-599 (domain or fragment, Escherichia coli K-12, UniProt P38038 237-599, looked up)
chain: LVASLSVNQKITGRNSEKDVRHIEIDLGDSGMRYQPGDALGVWYQNDPALVKELVELLWLKGDEPVTVEGKTLPLNEALQWHFELTVNTANIVENYATLTRSETLLPLVGDKAKLQHYAATTPIVDMVRFSPAQLDAEALINLLRPLTPRLYSIASSQAEVENEVHVTVGVVRYDVEGRARAGGASSFLADRVEEEGEVRVFIEHNDNFRLPANPETPVIMIGPGTGIAPFRAFMQQRAADEAPGKNWLFFGNPHFTEDFLYQVEWQRYVKDGVLTRIDLAWSRDQKEKVYVQDKLREQGAELWRWINDGAHIYVCGDANRMAKDVEQALLEVIAEFGGMDTEAADEFLSELRVERRYQRDVY

Molecular target: T1, Escherichia coli sulfite reductase …
Assay: cryo-EM structure

Q: Does B1 bind?
A: binds

Q: Does B2 bind?
A: binds

Q: Does B3 bind?
A: binds
